Measured values as given in patent publication US6376240, “RFLAT-1: a transcription factor that activates RANTES gene expression” (Board of Trustees of the Leland Stanford Junior Unversity).

B1: B probe (dsDNA)
DNA 1: AATTCGCTAGGGGATGCCCCTCAACTGCG
DNA 2: CGCAGTTGAGGGGCATCCCCTAGCGAATT
B2: kB probe (dsDNA)
DNA 1: AATTCGTCAGAGGGGACTTTCCGAGAG
DNA 2: CTCTCGGAAAGTCCCCTCTGACGAATT
B3: A probe (dsDNA)
DNA 1: AATTCGTTGCTATTTTGGAAACTCCCCTTG
DNA 2: CAAGGGGAGTTTCCAAAATAGCAACGAATT
B4: E probe (dsDNA)
DNA 1: AATTCTTTGTGCAATTTCACTTATGATACCG
DNA 2: CGGTATCATAAGTGAAATTGCACAAAGAATT
B5: C probe (dsDNA)
DNA 1: AATTCTCTAGATGAGAGAGCAGTGAGGGAGAGACG
DNA 2: CGTCTCTCCCTCACTGCTCTCTCATCTAGAGAATT
B6: A/B probe (dsDNA)
DNA 1: AATTCGCTATTTTGGAAACTCCCCTTAGGGGATGCCCCTCAACTGCG
DNA 2: CGCAGTTGAGGGGCATCCCCTAAGGGGAGTTTCCAAAATAGCGAATT

These binders were tested against T1, RFLAT-1 C-terminal portion (aa 59-288) (homo sapien, UniProt Q9Y2Y9 SEQ:59-288) (assay: EMSA). Settings: tags: His6 (pET-28a); label: 32P.
T1 sequence (Q9Y2Y9 other isoform, or with tags, fused parts or gaps): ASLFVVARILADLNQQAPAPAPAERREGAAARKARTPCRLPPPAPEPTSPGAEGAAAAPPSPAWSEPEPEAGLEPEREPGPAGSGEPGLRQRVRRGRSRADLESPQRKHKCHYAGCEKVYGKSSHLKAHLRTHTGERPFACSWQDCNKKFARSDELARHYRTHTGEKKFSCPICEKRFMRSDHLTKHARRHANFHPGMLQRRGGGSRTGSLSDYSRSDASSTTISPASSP
Protocol: (§1) The wells were incubated in blocking buffer (5% goat serum, 5% horse serum, 0.1% Triton X-100 in PBS), washed in PBS supplemented with 0.1% Triton X-100, and incubated with antigen purified rabbit polyclonal anti-RFLAT-1 (1:500 [v/v]) or rabbit IgG (1:500 [v/v]) (Santa Cruz Biotechnology, Santa Cruz, Calif.). The wells were washed, incubated with goat anti-rabbit FITC (1:2000 [v/v]) (Caltag, Burlingame, Calif.), and anti-FITC Alexa™ 488 (1:2000 [v/v]) (Molecular Probes, Eugene, Oreg.). Finally, the slide was washed with PBS, covered with mounting media (1:3 [v/v], Vectashield with propidium iodide) (Vector, Burlingame, Calif.), cover slipped and sealed. EMSA and supershift assays were performed essentially as described by Ortiz et al., 1996, supra. Oligonucleotides were synthesized by Life Technologies, Inc. (Gaithersburg, Md.) and purified by a polyacrylamide-urea gel. Oligonucleotides were end-labeled using [γ-^32P] ATP and T4 polynucleotide kinase. The following oligonucleotides were used:
(§2) A carboxyl terminal portion of RFLAT-1, including the zinc finger DNA binding domain (nucleotides 550–1430), was isolated through expression cloning using an oligonucleotide probe containing three tandem A sites of the RANTES promoter.
B1: no binding.
B2: no binding.
B3: binds.
B4: no binding.
B5: no binding.

These binders were tested against T1, RFLAT-1 C-terminal portion (aa 59-288) (assay: EMSA; two retarded bands, possible oligomerization). Settings: tags: His6 (pET-28a); label: 32P.
Protocol: as §1, §2
B6: binds.
